Experimental data published in paper PMC7332966 (2020).

Target: FANCD2 (from His6-3C-FANCD2, His6-tag cleaved by 3C protease) (human, UniProt Q9BXW9 1-1451)
Sequence (Q9BXW9 whole entry): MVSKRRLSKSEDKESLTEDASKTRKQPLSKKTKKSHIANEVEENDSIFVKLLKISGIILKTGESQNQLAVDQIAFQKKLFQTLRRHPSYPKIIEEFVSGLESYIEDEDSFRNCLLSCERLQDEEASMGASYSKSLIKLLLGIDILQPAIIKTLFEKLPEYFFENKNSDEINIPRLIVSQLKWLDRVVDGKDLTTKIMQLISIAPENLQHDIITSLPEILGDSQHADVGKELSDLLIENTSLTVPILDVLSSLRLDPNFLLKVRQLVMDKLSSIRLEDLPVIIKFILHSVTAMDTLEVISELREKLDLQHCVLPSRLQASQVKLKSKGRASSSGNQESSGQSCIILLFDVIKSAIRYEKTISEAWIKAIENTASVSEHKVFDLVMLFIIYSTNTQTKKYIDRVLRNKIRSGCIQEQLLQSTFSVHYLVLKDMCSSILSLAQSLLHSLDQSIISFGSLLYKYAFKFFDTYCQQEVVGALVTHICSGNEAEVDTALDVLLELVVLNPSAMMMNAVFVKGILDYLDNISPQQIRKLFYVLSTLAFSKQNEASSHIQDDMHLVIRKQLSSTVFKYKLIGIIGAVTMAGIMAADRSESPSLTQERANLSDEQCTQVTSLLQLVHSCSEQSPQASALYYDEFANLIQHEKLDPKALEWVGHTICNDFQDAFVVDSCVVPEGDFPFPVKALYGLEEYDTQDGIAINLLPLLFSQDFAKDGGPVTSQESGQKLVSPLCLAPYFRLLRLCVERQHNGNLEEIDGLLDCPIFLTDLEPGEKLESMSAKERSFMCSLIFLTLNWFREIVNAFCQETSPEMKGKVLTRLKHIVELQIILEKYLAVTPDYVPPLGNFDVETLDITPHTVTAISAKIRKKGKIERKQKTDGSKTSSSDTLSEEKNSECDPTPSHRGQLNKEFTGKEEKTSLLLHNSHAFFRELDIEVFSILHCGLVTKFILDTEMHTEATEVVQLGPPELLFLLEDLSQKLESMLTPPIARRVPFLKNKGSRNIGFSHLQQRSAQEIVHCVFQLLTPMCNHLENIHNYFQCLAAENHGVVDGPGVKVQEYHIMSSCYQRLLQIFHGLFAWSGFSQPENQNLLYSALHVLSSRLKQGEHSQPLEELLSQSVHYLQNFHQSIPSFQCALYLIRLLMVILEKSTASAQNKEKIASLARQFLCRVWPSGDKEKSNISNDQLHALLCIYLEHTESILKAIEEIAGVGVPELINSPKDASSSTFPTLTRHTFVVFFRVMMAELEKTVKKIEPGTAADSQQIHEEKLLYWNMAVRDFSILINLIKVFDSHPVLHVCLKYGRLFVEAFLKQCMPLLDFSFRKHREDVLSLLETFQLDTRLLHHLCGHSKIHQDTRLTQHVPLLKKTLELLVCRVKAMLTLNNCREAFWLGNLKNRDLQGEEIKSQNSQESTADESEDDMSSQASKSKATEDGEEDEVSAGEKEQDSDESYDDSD

B1: His6-FANCI (wild type) (natural protein)
chain: MDQKILSLAAEKTADKLQEFLQTLREGDLTNLLQNQAVKGKVAGALLRAIFKGSPCSEEAGTLRRRKIYTCCIQLVESGDLQKEIASEIIGLLMLEAHHFPGPLLVELANEFISAVREGSLVNGKSLELLPIILTALATKKENLAYGKGVLSGEECKKQLINTLCSGRWDQQYVIQLTSMFKDVPLTAEEVEFVVEKALSMFSKMNLQEIPPLVYQLLVLSSKGSRKSVLEGIIAFFSALDKQHNEEQSGDELLDVVTVPSGELRHVEGTIILHIVFAIKLDYELGRELVKHLKVGQQGDSNNNLSPFSIALLLSVTRIQRFQDQVLDLLKTSVVKSFKDLQLLQGSKFLQNLVPHRSYVSTMILEVVKNSVHSWDHVTQGLVELGFILMDSYGPKKVLDGKTIETSPSLSRMPNQHACKLGANILLETFKIHEMIRQEILEQVLNRVVTRASSPISHFLDLLSNIVMYAPLVLQSCSSKVTEAFDYLSFLPLQTVQRLLKAVQPLLKVSMSMRDCLILVLRKAMFANQLDARKSAVAGFLLLLKNFKVLGSLSSSQCSQSLSVSQVHVDVHSHYNSVANETFCLEIMDSLRRCLSQQADVRLMLYEGFYDVLRRNSQLANSVMQTLLSQLKQFYEPKPDLLPPLKLEACILTQGDKISLQEPLDYLLCCIQHCLAWYKNTVIPLQQGEEEEEEEEAFYEDLDDILESITNRMIKSELEDFELDKSADFSQSTSIGIKNNICAFLVMGVCEVLIEYNFSISSFSKNRFEDILSLFMCYKKLSDILNEKAGKAKTKMANKTSDSLLSMKFVSSLLTALFRDSIQSHQESLSVLRSSNEFMRYAVNVALQKVQQLKETGHVSGPDGQNPEKIFQNLCDITRVLLWRYTSIPTSVEESGKKEKGKSISLLCLEGLQKIFSAVQQFYQPKIQQFLRALDVTDKEGEEREDADVSVTQRTAFQIRQFQRSLLNLLSSQEEDFNSKEALLLVTVLTSLSKLLEPSSPQFVQMLSWTSKICKENSREDALFCKSLMNLLFSLHVSYKSPVILLRDLSQDIHGHLGDIDQDVEVEKTNHFAIVNLRTAAPTVCLLVLSQAEKVLEEVDWLITKLKGQVSQETLSEEASSQATLPNQPVEKAIIMQLGTLLTFFHELVQTALPSGSCVDTLLKDLCKMYTTLTALVRYYLQVCQSSGGIPKNMEKLVKLSGSHLTPLCYSFISYVQNKSKSLNYTGEKKEKPAAVATAMARVLRETKPIPNLIFAIEQYEKFLIHLSKKSKVNLMQHMKLSTSRDFKIKGNILDMVLREDGEDENEEGTASEHGGQNKEPAKKKRKK
modifications: RED-tris-NTA dye (NanoTemper) on the His6 tag
Kd: 11 nM
